In patent publication US20190381169A1, “PHARMACEUTICAL COMBINATIONS FOR IMMUNOTHERAPY” (Technische Universitat Dresden, priority 2014, published 2019):
“Also recorded” adds a separate entry of the source.

What was measured:
[1] = molecular target: T1, p75^NTR (Mus musculus, UniProt Q9Z0W1); test: Expression of MHC and co-stimulatory molecules on murine PDCs; type: cell-based
T1 construct: endogenous in cells; host or cells: murine plasmacytoid dendritic cells differentiated in vitro from bone marrow with Flt3-L (p75NTR+/+ wildtype; p75NTR-/- as control)
T1 sequence (Q9Z0W1 32-427): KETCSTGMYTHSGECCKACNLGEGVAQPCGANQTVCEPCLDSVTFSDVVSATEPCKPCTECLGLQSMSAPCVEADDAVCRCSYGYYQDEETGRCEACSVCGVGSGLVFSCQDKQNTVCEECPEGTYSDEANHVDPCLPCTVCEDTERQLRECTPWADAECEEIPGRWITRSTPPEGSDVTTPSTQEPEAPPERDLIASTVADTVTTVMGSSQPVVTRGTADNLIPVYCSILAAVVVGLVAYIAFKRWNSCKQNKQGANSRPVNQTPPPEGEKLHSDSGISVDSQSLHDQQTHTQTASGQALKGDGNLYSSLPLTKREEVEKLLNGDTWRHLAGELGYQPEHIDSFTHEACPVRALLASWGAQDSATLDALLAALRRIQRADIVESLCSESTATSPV

[2] = molecular target: T1, p75^NTR; settings: in vivo
[3] = molecular target: T2, p75^NTR (Homo sapiens, UniProt P08138); test: IFNα secretion by ODN 2216 stimulated human PDC (ELISA); type: cell-based; set-up: nerve growth factor receptor p75^NTR, which is expressed by human and murine plasmacytoid dendritic cells (PDC); endogenous in cells; host or cells: primary human plasmacytoid dendritic cells (BDCA-4+ selection) from buffy coats or from peripheral blood of allergic donors; settings: ODN 2216 plus NGF 200 ng/ml vs ODN 2216 without NGF; 14 hours; p=0.0031
T2 sequence (P08138 29-427): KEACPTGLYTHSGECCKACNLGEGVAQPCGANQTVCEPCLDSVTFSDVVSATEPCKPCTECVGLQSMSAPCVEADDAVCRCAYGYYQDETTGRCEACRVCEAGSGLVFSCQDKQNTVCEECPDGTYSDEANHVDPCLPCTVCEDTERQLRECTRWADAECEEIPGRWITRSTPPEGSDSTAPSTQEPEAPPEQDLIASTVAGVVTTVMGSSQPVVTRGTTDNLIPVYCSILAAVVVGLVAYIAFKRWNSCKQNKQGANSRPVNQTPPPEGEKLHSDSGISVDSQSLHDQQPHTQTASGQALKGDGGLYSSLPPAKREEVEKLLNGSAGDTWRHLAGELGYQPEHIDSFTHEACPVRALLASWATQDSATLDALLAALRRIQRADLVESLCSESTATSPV
Procedure: Blood samples used for cell purification were obtained from two different sources: Fresh buffy coat samples, not older than 8 hours, served as the source of PDC used in oligodeoxynucleotides (ODN) and anti FcεRIα stimulation experiments. […]
Alike CD4^+ T helper cells isolation from peripheral blood mononuclear cells, total cell numbers were determined prior to purification of PDC. […] Magnetic cell separation procedure as described for first LS column was repeated for second MS column except that washing of the MS column was carried out with 500 μl PBS E/B. Purified PDC were counted and purity was assessed by flow cytometric analysis after staining the cells with monoclonal mouse anti human BDCA2-PE (Miltenyi Biotech) and monoclonal mouse anti human CD271-APC (Miltenyi Biotech). […]

[4] = p75^NTR+/+ PDCs stimulated with CpG B, presence of NGF
[5] = p75^NTR+/+ PDCs stimulated with ovalbumin (OVA), NGF added

For “NGF: Nerve growth factor, best characterized neurotrophin; natural p75^NTR agonist (R&D Systems)”, which “expression of MHC-II” value ([1]; p75^NTR+/+ PDCs stimulated with CpG A, presence of NGF) is on record?
The value was “reduced expression; also recorded: decreased expression”.

What about the “expression of MHC I” value [1, 4] of the same substance?
The value was “further increased expression”.

What about the “expression of MHC-II” value [1, 4] of the same substance?
Its value is “increased expression; also recorded: further increase”.

What about the “expression of ICOS-L and MHC-II” value [1, 5] of the same substance?
Its value is “further increased; also recorded: increased expression”.

What about the “expression of MHC-I, PD-L1 and Ox40-L” value [1, 5] of the same substance?
The value was “altered the expression; also recorded: decreased expression”.

And the “expression of MHC-I, PD-L1 and Ox40-L on p75^NTR−/− PDCs” value ([1]; p75^NTR−/− PDCs stimulated with ovalbumin, NGF added)?
Its value is “but not on p75^NTR−/− PDCs”.

And the “type I diabetes incidence without CpG B” value [2]?
Its value is “no NGF dependent effect”.

What about the “time of onset of PDC induced type I diabetes (diabetes free time)” value ([2]; iv) of the same substance?
The value was “occurred at a significant later stage; also recorded: significantly prolonged”.

What about the IFNα secretion [3] of the same substance?
Its IFNα secretion is “significant reduction”.
